From paper PMC7222171 (Cellular and Molecular Immunology, 2020) come the findings set out here.

The test deals with Con1 E2 soluble fragment, amino acids 384–661 (wild type) (Hepatitis C virus genotype 1b, Con1, UniProt Q9WMX2). Kind of test: ELISA. In general terms: In an ELISA, binding on a coated surface is turned into a signal by an enzyme label.
Sequence of Con1 E2 soluble fragment, amino acids 384–661 (wild type) (Q9WMX2 384-661): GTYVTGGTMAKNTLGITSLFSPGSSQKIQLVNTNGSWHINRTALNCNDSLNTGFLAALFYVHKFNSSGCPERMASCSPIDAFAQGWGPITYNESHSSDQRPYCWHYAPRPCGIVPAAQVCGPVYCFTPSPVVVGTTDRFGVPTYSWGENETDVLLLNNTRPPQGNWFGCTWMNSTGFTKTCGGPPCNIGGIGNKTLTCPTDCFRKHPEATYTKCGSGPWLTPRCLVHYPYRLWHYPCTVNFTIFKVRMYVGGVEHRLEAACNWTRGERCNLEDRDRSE

B1: 8D6 double Cys to Ala mutant (C104A, C109A) (antibody, V domains shown)
VH: QVQLVQSGSELKKPGASLKLSCKASGYTYITPAMNWVRQAPGHGLEWMGGINTNTGNPTYAQGFAGRFVFSWDTSVSTAYLHISSLKTEDTAVYYCADTRIFSARRGTAYGGFDVWGQGTMVTVSS
VL: DIQMTQSPSSLSASVGDRITITCRASQSISNFLNWFQHRPGKAPKLLIYGATILQSGVPSRFSGSGSGTDFTLTISSLQPEDFATYYCQQSDSSTYIFGQGTKVEIK
On to B1, for which the binding result is recorded as “binds”.

B2: AR3C double Cys mutant (double amino-acid substitution in the CX4C motif) (antibody, V domains shown)
VH: VQLLEQSGAEVKKPGSSVKVSCETSGGTFDNYALNWVRQAPGQGLEWIGGVVPLFGTTRNAQKFQGRVTISDDKSTGTGHMELRSLRSEDTAVYYCVRSVTPRYAGGGFAYGEFDYWGQGTLVTVSS
VL: EIELTQSPATLSVSPGERATLSCRASQSVSSNLAWYQQKPGQAPRLLIYGASTRATGIPARFSGSGSGTEFTLTVSRLEPEDSAVYFCQQYYRSPLTFGGGTKVEIK
On to B2, for which the binding result is “binds”.
